Legend:
[1] = test system: SKNMC-IGF2^1-67 xenografts; test: IGF2 dependent human cancer cell xenografts; assay type: in vivo, mouse; details: for Xenograft growth: CD-1 nude mice, 40 mg kg-1 per week by osmotic mini-pump
Description: (§1) IGF2 sensitive autocrine cell line SKNMC-IGF2^67 was generated from the Ewing sarcoma cell line SKNMC by retroviral infection with constructs containing IRES-luciferase. Autocrine growth and signalling function of the SKNMC line, including inhibition by IGF2-TRAP, was confirmed in culture using an MTS reagent (Cell Titer 96 Aqueous One Solution cell proliferation assay, Promega). For xenografts, approximately 5×10^6 SKNMC-IGF2^67 cells harvested during the growth phase of sub-confluent cell cultures were then mixed with matrigel (50:50 v/v, 100 μl/mouse) and injected (sub-cutaneous) into CD-1® (Crl:NU-1 Foxn1nu) female mice, 24 hours after establishing ALZET® mini-pump placement delivering a single concentration 40 mg kg-1 per week either IGF2-TRAP or PBS vehicle control. Tumour growth was monitored with both caliper measurements and bioluminescence. The latter was performed with a Bruker Xtreme 2D optical system 15 minutes (10 second exposure) following luciferin injection (100 μl per 20 g body weight). Tumours were excised at 28 days or when size was >1000 mm3. Fixation in formalin, embedding in paraffin and Hematoxylin and Eosin (H&E) staining was done using standard protocols. Apoptotic area was quantified using automated image analysis of brightfield images in ImageJ, applying H AEC color deconvolution filter and automated thresholding. Serum was also collected at the time of culling.

[2] = test system: IGF2 in human serum; test: Neutral size fractionation of human serum before and after depletion with IGF2-TRAP beads, western blot
IGF2 in human serum, sequence (P01344 25-91 limits assumed): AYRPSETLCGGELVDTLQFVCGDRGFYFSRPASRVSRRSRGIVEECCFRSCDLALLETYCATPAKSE
Protocol: FIG. 14 IGF2-TRAP modifies the molecular distribution of IGF2 in human serum. Normal (left) and NICTH (right) sera were fractionated in a gel filtration column at neutral pH, alongside a molecular weight calibration marker, before and after incubation and depletion with IGF2-TRAP-loaded protein G beads. Elution fractions were analysed by western blot.
Changes in the molecular distribution of circulating IGF2 upon IGF2-TRAP treatment were analysed by neutral size fractionation of human serum (FIG. 14). In adult human serum, western blots of the fractions reveal that IGF2 is mainly the mature lower molecular weight isoform, and is predominantly present in a ternary complex with IGFBP3 and the acid labile subunit (ALS) (˜150 kDa), and to a lesser extent in a binary complex with IGFBP3 (˜40 kDa), with free IGF2 below the limit of detection. […] Pull-downs confirmed that the depleted IGF2 specifically bound IGF2-TRAP. In a second experiment, serum from a patient with Non-Islet-Cell Tumour-associated Hypoglycaemia (NICTH) secondary to a GIST tumour was utilised.

[3] = test system: SKNMC-IGF2^1-67 cells; test: Growth/viability of IGF2-autocrine SKNMC cells in culture (MTS); assay type: cell-based, human
Description: as §1, with “Serum was also collected at the time of culling.” left out

B1: Fc-domain 11^AB5-RHH: Fc-fusion of domain 11^AB5-RHH (IGF2-TRAP); IgG2 Fc form purified from CHO cells used for xenografts (protein)
chain: NEHDDCQVTNPSTGHLFDLSSLSGRAGFTAAYAKGWGVYMSICGENENCPPGVGACFGRTRISVGKANKRLRYVDQVLQLVYKDGSHCPSKHGLSYKSVISFVCRPEAGPTNRPMLISLDKQTCTLFFSWHTPLACEQAT
modifications: left off: a dimerising Fc or GST
notes: Fc-fusion of domain 11^AB5-RHH (IGF2-TRAP); IgG2 Fc form purified from CHO cells used for xenografts
Question: What does the source list for B1?
Answer: Xenograft growth ([1]; listed as Fc-domain 11AB5-RHH): Reduced xenograft growth rates; Xenograft growth ([1]; listed as IGF2-TRAP): reduces IGF2 dependent xenograft growth; Total serum IGF1, Growth Hormone or IGFBP levels ([1]; Day 28): without alteration; Serum IGF2 ([1]; Day 28, listed as Fc-domain 11AB5-RHH): less evident; Serum IGF2 ([1]; Day 28, listed as IGF2-TRAP): reduced levels of serum IGF2; IGF2 distribution in serum after IGF2-TRAP depletion ([2]; NICTH patient serum): depleted both lower and higher molecular weight isoforms of IGF2; IGF2 distribution in serum after IGF2-TRAP depletion ([2]; normal adult human serum): depleted IGF2 in the binary complex; Growth of SKNMC cells expressing constitutive IGF2^1-67 in culture ([3]; listed as Fc-domain 11AB5-RHH): inhibited; Growth of SKNMC cells expressing constitutive IGF2^1-67 in culture ([3]; listed as IGF2-TRAP): decreases the cell viability

Source: patent publication US10494415B2, “Insulin-like growth factor 2 (IGF2) binding agents” (Cancer Research Technology Limited, priority 2015, dated 2019)
